{
  "source": "paper doi:10.1101/2022.05.27.493400",
  "target": "SARS-CoV-2 spike protein, extraviral domain (aa 1-1213) (SARS-CoV-2) (UniProt P0DTC2)",
  "assay": "SPR",
  "note": "Values joined by “and” are separate entries in the source; they are usually repeats but may differ in a detail not shown here. Identical values can stand only once.",
  "data": [
    {"substance": "pineapple-derived jacalin-related lectin AcmJRL (natural protein)", "values": [
      {"measurement": "KD of a single replicate, from Langmuir isotherm", "value": "7.9 µM and 11.5 µM and 14 µM"},
      {"measurement": "KD of a single replicate, from rate constants", "value": "3.1 µM and 4 µM and 2.7 µM"},
      {"measurement": "Kd", "value": "3.27 µM and 11.1 µM"},
      {"measurement": "koff", "value": 0.00342, "unit": "s⁻¹"},
      {"measurement": "kon", "value": 1060, "unit": "M⁻¹ s⁻¹"}
    ]}
  ]
}
